Earlier results on 1 substance are cited in paper PMC4769028.

The series deals with CusA (Escherichia coli) (UniProt P38054). Briefly: ITC. A general note: Isothermal titration calorimetry measures the heat released or taken up as one component is titrated into another.
Sequence of UniProt P38054 (P38054 whole entry): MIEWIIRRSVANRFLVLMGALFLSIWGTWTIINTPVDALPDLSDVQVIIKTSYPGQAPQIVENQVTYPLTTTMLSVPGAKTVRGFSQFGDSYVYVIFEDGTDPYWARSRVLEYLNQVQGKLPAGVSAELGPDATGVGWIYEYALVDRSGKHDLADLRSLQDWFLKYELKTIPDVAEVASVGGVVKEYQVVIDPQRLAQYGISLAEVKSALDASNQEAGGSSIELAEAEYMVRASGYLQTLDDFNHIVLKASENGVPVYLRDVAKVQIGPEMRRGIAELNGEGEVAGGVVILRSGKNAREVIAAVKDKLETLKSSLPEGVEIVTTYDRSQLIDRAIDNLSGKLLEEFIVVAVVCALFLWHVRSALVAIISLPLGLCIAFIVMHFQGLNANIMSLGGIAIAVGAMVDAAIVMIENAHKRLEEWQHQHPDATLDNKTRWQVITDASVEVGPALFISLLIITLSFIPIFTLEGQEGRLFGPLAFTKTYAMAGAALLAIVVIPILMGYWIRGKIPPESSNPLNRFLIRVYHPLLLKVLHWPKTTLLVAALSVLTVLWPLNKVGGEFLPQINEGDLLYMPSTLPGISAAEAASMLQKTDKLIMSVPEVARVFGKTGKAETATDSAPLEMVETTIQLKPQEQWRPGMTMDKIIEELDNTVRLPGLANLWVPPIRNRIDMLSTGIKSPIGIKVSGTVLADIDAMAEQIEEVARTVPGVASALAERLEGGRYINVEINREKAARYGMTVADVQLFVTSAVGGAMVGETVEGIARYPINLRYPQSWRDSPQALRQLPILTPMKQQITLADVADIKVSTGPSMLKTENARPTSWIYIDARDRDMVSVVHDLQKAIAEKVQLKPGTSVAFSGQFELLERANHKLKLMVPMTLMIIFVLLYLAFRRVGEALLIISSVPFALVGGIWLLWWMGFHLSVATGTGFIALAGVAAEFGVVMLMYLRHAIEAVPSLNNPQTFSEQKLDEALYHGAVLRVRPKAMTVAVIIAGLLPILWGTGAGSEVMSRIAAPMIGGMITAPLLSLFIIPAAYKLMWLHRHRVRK

In general, Kd refers to the equilibrium constant for the complex coming apart. Turning to CusB (from UniProt P77239), the Kd was 5.1 µM.
